Assays:
Assay in all cases: holdup assay
Design in all cases: key: below the threshold = too weak to quantify, mostly under pKd 3.1 to 4
AHNAK1, Q09666 = molecular target: AHNAK1, Q09666
APBA3_1, O96018 = molecular target: T1, APBA3_1, O96018
T1 sequence (O96018 389-490, limits assumed, looked up): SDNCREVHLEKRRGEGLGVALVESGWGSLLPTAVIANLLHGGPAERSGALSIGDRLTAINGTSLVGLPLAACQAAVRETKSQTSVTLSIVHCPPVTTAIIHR

DLG1_3, Q12959 = molecular target: DLG1_3, Q12959
DLG3_3, Q92796 = molecular target: T2, DLG3_3, Q92796
T2 sequence (Q92796 374-475, limits assumed, looked up): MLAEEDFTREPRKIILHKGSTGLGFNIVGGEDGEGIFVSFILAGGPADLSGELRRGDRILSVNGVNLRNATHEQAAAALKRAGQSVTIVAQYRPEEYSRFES

DLG4_3, P78352 = molecular target: DLG4_3, P78352
DLG4_3, P78352, sequence (P78352 306-403): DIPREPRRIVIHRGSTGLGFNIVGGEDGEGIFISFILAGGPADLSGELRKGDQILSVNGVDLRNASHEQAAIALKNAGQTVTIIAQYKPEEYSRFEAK

DLG5_1, Q8TDM6 = molecular target: DLG5_1, Q8TDM6
DLG5_1, Q8TDM6, sequence (Q8TDM6 617-713): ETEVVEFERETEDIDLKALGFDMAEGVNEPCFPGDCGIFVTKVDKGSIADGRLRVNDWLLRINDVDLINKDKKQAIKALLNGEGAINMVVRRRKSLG

FRMPD3, Q5JV73 = molecular target: FRMPD3, Q5JV73
FRMPD3, Q5JV73, sequence (Q5JV73 12-100): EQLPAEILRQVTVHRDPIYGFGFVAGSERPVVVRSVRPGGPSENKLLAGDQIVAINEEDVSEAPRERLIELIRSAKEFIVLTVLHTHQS

GRASP, Q7Z6J2 = molecular target: GRASP, Q7Z6J2
GRASP, Q7Z6J2, sequence (Q7Z6J2 96-193): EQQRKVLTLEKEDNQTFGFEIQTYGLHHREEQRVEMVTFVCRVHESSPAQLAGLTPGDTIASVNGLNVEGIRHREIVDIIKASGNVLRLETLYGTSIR

IL16_4, Q14005 = molecular target: IL16_4, Q14005
IL16_4, Q14005, sequence (Q14005 1229-1329): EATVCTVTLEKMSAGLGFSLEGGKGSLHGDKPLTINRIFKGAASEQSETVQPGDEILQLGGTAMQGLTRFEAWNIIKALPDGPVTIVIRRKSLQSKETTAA

Inadl_2, Q8NI35 = molecular target: Inadl_2, Q8NI35
Inadl_2, Q8NI35, sequence (Q8NI35 238-335): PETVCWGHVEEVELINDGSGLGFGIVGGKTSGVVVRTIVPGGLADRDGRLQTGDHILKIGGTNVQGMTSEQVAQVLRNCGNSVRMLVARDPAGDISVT

Inadl_6, Q8NI35 = molecular target: Inadl_6, Q8NI35
Inadl_6, Q8NI35, sequence (Q8NI35 1058-1167): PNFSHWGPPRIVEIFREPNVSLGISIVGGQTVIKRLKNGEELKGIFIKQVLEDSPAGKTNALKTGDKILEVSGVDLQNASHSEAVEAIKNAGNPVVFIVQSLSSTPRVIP

Inadl_9, Q8NI35 = molecular target: Inadl_9, Q8NI35
Inadl_9, Q8NI35, sequence (Q8NI35 1530-1615): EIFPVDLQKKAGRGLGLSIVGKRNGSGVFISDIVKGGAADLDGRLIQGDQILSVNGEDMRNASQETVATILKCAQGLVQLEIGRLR

LIN7B, Q9HAP6 = molecular target: T3, LIN7B, Q9HAP6
T3 sequence (Q9HAP6 88-185, limits assumed, looked up): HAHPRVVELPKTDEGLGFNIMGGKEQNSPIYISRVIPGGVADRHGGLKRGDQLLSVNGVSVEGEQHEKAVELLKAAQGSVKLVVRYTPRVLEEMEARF

LRRC7, Q96NW7 = molecular target: T4, LRRC7, Q96NW7
T4 sequence (Q96NW7 1440-1537, limits assumed, looked up): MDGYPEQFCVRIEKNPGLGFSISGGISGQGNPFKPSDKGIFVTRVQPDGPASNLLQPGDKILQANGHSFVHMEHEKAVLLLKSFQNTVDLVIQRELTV

MAGI1_2, Q96QZ7 = molecular target: MAGI1_2, Q96QZ7
MAGI1_2, Q96QZ7, sequence (Q96QZ7 456-580): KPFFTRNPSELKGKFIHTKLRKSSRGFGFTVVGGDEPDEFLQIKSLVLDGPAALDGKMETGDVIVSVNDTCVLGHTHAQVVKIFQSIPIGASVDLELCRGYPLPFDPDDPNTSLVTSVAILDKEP

MAST1, Q9Y2H9 = molecular target: MAST1, Q9Y2H9
MAST1, Q9Y2H9, sequence (Q9Y2H9 962-1065): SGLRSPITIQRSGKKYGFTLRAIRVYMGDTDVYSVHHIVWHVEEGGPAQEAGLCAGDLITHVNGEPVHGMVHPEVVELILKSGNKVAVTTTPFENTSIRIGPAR

MPDZ_10, O75970 = molecular target: T5, MPDZ_10, O75970
T5 sequence (O75970 1624-1722, limits assumed, looked up): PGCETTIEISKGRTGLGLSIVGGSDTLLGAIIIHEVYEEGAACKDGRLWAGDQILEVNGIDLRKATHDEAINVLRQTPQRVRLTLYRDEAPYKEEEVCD

MPP6, Q9NZW5 = molecular target: T6, MPP6, Q9NZW5
T6 sequence (Q9NZW5 125-219, limits assumed, looked up): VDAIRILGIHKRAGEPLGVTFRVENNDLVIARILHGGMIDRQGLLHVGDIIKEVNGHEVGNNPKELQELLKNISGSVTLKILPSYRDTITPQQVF

NHERF2_2, Q15599 = molecular target: NHERF2_2, Q15599
NHERF2_2, Q15599, sequence (Q15599 142-238): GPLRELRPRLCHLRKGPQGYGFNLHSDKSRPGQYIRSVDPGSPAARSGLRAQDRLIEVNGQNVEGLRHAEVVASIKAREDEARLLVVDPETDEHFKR

NHERF4_1, Q86UT5-2 = molecular target: NHERF4_1, Q86UT5-2
NHERF4_1, Q86UT5-2, sequence (Q86UT5 other isoform, or with tags, fused parts or gaps): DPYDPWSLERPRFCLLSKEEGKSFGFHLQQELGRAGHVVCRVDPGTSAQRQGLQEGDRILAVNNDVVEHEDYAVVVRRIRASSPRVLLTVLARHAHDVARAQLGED

NOS1, P29475 = molecular target: NOS1, P29475
NOS1, P29475, sequence (P29475 9-101): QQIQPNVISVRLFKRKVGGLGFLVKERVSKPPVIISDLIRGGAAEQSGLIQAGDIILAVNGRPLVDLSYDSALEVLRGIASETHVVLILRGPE

PARD3B_1, Q8TEW8 = molecular target: T7, PARD3B_1, Q8TEW8
T7 sequence (Q8TEW8 196-299, limits assumed, looked up): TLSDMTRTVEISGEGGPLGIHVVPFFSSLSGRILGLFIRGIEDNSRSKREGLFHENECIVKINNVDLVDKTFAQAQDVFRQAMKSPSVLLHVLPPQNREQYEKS

PARD3_3, Q8TEW0 = molecular target: PARD3_3, Q8TEW0
PARD3_3, Q8TEW0, sequence (Q8TEW0 582-685): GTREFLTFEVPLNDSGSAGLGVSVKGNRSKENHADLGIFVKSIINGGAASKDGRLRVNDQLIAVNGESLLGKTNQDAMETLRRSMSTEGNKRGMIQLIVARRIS

RADIL, Q96JH8 = molecular target: T8, RADIL, Q96JH8
T8 sequence (Q96JH8 971-1071, limits assumed, looked up): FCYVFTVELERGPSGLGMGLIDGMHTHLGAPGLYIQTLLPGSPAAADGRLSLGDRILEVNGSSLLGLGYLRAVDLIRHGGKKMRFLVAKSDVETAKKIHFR

SNTG2, Q9NY99 = molecular target: T9, SNTG2, Q9NY99
T9 sequence (Q9NY99 68-166, limits assumed, looked up): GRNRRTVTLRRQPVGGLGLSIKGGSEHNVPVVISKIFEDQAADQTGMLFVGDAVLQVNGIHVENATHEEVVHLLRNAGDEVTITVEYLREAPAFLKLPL

SNX27, Q96L92 = molecular target: SNX27, Q96L92
SYNJ2BP, P57105 = molecular target: T10, SYNJ2BP, P57105
T10 sequence (P57105 8-110, limits assumed, looked up): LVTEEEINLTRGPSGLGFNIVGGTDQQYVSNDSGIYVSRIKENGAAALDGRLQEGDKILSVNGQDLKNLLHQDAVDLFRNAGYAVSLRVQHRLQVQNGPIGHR

TJP2_1, Q9UDY2 = molecular target: TJP2_1, Q9UDY2
TJP2_1, Q9UDY2, sequence (Q9UDY2 24-128): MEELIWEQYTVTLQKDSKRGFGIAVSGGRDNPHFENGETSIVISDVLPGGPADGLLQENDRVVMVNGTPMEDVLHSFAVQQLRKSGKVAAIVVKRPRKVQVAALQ

[1] = plain residues with an end cap or a label only (N-terminal biotin on a linker: ado-ado)
[2] = plain residues with an end cap or a label only (N-terminal biotin on a linker: ahx)

AHNAK1, Q09666, sequence (Q09666 4-100): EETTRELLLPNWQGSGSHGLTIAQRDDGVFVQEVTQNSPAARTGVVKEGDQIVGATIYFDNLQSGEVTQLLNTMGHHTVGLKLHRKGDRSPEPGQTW
DLG1_3, Q12959, sequence (Q12959 457-571): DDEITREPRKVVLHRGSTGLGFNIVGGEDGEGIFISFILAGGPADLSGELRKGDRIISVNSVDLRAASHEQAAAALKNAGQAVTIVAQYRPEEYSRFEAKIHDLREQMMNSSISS

B1: HTR2A, P28223 (peptide)
chain: DGVNEKVSCV
- pKd (AHNAK1, Q09666; [1]): below the threshold
- pKd (APBA3_1, O96018; [1]): below the threshold
- pKd (DLG1_3, Q12959; [1]): below the threshold
- pKd (DLG3_3, Q92796; [1]): below the threshold
- pKd (DLG4_3, P78352; [1]): below the threshold
- pKd (DLG5_1, Q8TDM6; [1]): below the threshold
- pKd (FRMPD3, Q5JV73; [1]): below the threshold
- pKd (GRASP, Q7Z6J2; [1]): 4.21
- pKd (IL16_4, Q14005; [1]): 3.56
- pKd (Inadl_2, Q8NI35; [1]): below the threshold
- pKd (Inadl_6, Q8NI35; [1]): 3.57
- pKd (Inadl_9, Q8NI35; [1]): below the threshold
- pKd (LIN7B, Q9HAP6; [1]): 3.79
- pKd (LRRC7, Q96NW7; [1]): below the threshold
- pKd (MAGI1_2, Q96QZ7; [1]): below the threshold
- pKd (MAST1, Q9Y2H9; [1]): 3.65
- pKd (MPDZ_10, O75970; [1]): 4.19
- pKd (MPP6, Q9NZW5; [1]): below the threshold
- pKd (NHERF2_2, Q15599; [1]): below the threshold
- pKd (NHERF4_1, Q86UT5-2; [1]): below the threshold
- pKd (NOS1, P29475; [1]): 3.69
- pKd (PARD3B_1, Q8TEW8; [1]): below the threshold
- pKd (PARD3_3, Q8TEW0; [1]): below the threshold
- pKd (RADIL, Q96JH8; [1]): 4.53
- pKd (SNTG2, Q9NY99; [1]): 3.69
- pKd (SNX27, Q96L92; [1]): 5.15
- pKd (SYNJ2BP, P57105; [1]): 4.3
- pKd (TJP2_1, Q9UDY2; [1]): 3.82

B2: CGN, Q9P2M7 (peptide)
chain: TESNLQTSSC
- pKd (AHNAK1, Q09666; [2]): below the threshold
- pKd (APBA3_1, O96018; [2]): below the threshold
- pKd (DLG1_3, Q12959; [2]): below the threshold
- pKd (DLG3_3, Q92796; [2]): below the threshold
- pKd (DLG4_3, P78352; [2]): below the threshold
- pKd (DLG5_1, Q8TDM6; [2]): below the threshold
- pKd (FRMPD3, Q5JV73; [2]): below the threshold
- pKd (GRASP, Q7Z6J2; [2]): 3.95
- pKd (IL16_4, Q14005; [2]): below the threshold
- pKd (Inadl_2, Q8NI35; [2]): below the threshold
- pKd (Inadl_6, Q8NI35; [2]): below the threshold
- pKd (Inadl_9, Q8NI35; [2]): below the threshold
- pKd (LIN7B, Q9HAP6; [2]): below the threshold
- pKd (LRRC7, Q96NW7; [2]): below the threshold
- pKd (MAGI1_2, Q96QZ7; [2]): below the threshold
- pKd (MAST1, Q9Y2H9; [2]): below the threshold
- pKd (MPDZ_10, O75970; [2]): 3.9
- pKd (MPP6, Q9NZW5; [2]): below the threshold
- pKd (NHERF2_2, Q15599; [2]): below the threshold
- pKd (NHERF4_1, Q86UT5-2; [2]): 3.62
- pKd (NOS1, P29475; [2]): below the threshold
- pKd (PARD3B_1, Q8TEW8; [2]): below the threshold
- pKd (PARD3_3, Q8TEW0; [2]): below the threshold
- pKd (RADIL, Q96JH8; [2]): below the threshold
- pKd (SNTG2, Q9NY99; [2]): below the threshold
- pKd (SNX27, Q96L92; [2]): 4.65
- pKd (SYNJ2BP, P57105; [2]): below the threshold
- pKd (TJP2_1, Q9UDY2; [2]): below the threshold

B3: SRC, P12931 (peptide)
chain: EPQYQPGENL
- pKd (AHNAK1, Q09666; [1]): below the threshold
- pKd (APBA3_1, O96018; [1]): below the threshold
- pKd (DLG1_3, Q12959; [1]): below the threshold
- pKd (DLG3_3, Q92796; [1]): below the threshold
- pKd (DLG4_3, P78352; [1]): below the threshold
- pKd (DLG5_1, Q8TDM6; [1]): below the threshold
- pKd (FRMPD3, Q5JV73; [1]): below the threshold
- pKd (GRASP, Q7Z6J2; [1]): below the threshold
- pKd (IL16_4, Q14005; [1]): 3.5
- pKd (Inadl_2, Q8NI35; [1]): below the threshold
- pKd (Inadl_6, Q8NI35; [1]): below the threshold
- pKd (Inadl_9, Q8NI35; [1]): below the threshold
- pKd (LIN7B, Q9HAP6; [1]): below the threshold
- pKd (LRRC7, Q96NW7; [1]): below the threshold
- pKd (MAGI1_2, Q96QZ7; [1]): below the threshold
- pKd (MAST1, Q9Y2H9; [1]): 4.18
- pKd (MPDZ_10, O75970; [1]): below the threshold
- pKd (MPP6, Q9NZW5; [1]): below the threshold
- pKd (NHERF2_2, Q15599; [1]): 3.77
- pKd (NHERF4_1, Q86UT5-2; [1]): 3.59
- pKd (NOS1, P29475; [1]): below the threshold
- pKd (PARD3B_1, Q8TEW8; [1]): 3.91
- pKd (PARD3_3, Q8TEW0; [1]): 3.6
- pKd (RADIL, Q96JH8; [1]): below the threshold
- pKd (SNTG2, Q9NY99; [1]): below the threshold
- pKd (SNX27, Q96L92; [1]): 3.79
- pKd (SYNJ2BP, P57105; [1]): below the threshold
- pKd (TJP2_1, Q9UDY2; [1]): below the threshold

B4: TIAM1, Q13009 (peptide)
chain: APSRKLNTEI
- pKd (AHNAK1, Q09666; [2]): below the threshold
- pKd (APBA3_1, O96018; [2]): below the threshold
- pKd (DLG1_3, Q12959; [2]): below the threshold
- pKd (DLG3_3, Q92796; [2]): below the threshold
- pKd (DLG4_3, P78352; [2]): below the threshold
- pKd (DLG5_1, Q8TDM6; [2]): below the threshold
- pKd (FRMPD3, Q5JV73; [2]): below the threshold
- pKd (GRASP, Q7Z6J2; [2]): below the threshold
- pKd (IL16_4, Q14005; [2]): below the threshold
- pKd (Inadl_2, Q8NI35; [2]): below the threshold
- pKd (Inadl_6, Q8NI35; [2]): below the threshold
- pKd (Inadl_9, Q8NI35; [2]): below the threshold
- pKd (LIN7B, Q9HAP6; [2]): below the threshold
- pKd (LRRC7, Q96NW7; [2]): below the threshold
- pKd (MAGI1_2, Q96QZ7; [2]): below the threshold
- pKd (MAST1, Q9Y2H9; [2]): below the threshold
- pKd (MPDZ_10, O75970; [2]): 3.75
- pKd (MPP6, Q9NZW5; [2]): below the threshold
- pKd (NHERF2_2, Q15599; [2]): below the threshold
- pKd (NHERF4_1, Q86UT5-2; [2]): below the threshold
- pKd (NOS1, P29475; [2]): below the threshold
- pKd (PARD3B_1, Q8TEW8; [2]): below the threshold
- pKd (PARD3_3, Q8TEW0; [2]): below the threshold
- pKd (RADIL, Q96JH8; [2]): below the threshold
- pKd (SNTG2, Q9NY99; [2]): below the threshold
- pKd (SNX27, Q96L92; [2]): below the threshold
- pKd (SYNJ2BP, P57105; [2]): below the threshold
- pKd (TJP2_1, Q9UDY2; [2]): below the threshold

— publication PMC9482650, “Quantitative fragmentomics allow affinity mapping of interactomes” (Nature Communications, 2022)
